{
  "source": "paper PMC10997623",
  "about": "“Cryo-EM structures of prokaryotic ligand-gated ion channel GLIC provide insights into gating in a lipid environment” (Nature Communications, 2024)",
  "proteins": {"B1": {"name": "GLIC, proton-activated prokaryotic ligand-gated ion channel from Gloeobacter violaceus (natural protein)", "chain": "QDMVSPPPPIADEPLTVNTGIYLIECYSLDDKAETFKVNAFLSLSWKDRRLAFDPVRSGVRVKTYEPEAIWIPEIRFVNVENARDADVVDISVSPDGTVQYLERFSARVLSPLDFRRYPFDSQTLHIYLIVRSVDTRNIVLAVDLEKVGKNDDVFLTGWDIESFTAVVKPANFALEDRLESKLDYQLRISRQYFSYIPNIILPMLFILFISWTAFWSTSYEANVTLVVSTLIAHIAFNILVETNLPKTPYMTYTGAIIFMIYLFYFVAVIEVTVQHYLKVESQPARAASITRASRIAFPVVFLLANIILAFLFFGF", "notes": "GLIC, Gloeobacter violaceus ligand-gated ion channel; expressed as a GLIC-MBP fusion from pET26, MBP removed with HRV-3C protease; Homopentamer; also called GLIC_(aso-pH7.5); GLIC_(pH7.5); source: E. coli C41, purified (DDM, amylose resin, SEC), reconstituted in lipid nanodiscs with MSP1E3D1"}},
  "target": "the molecule itself",
  "assay": "cryo-EM structure; GLIC in MSP1E3D1 lipid nanodiscs (asolectin at pH 7.5; DOPE:POPS:POPC 2:1:1 at pH 7.5, 5.5, 4.0 and 2.5), 150 mM NaCl, 1 mM EDTA; seven maps at 2.6-3.4 Å; homopentamer",
  "data": [
    {"protein": "B1", "values": [
      {"measurement": "stoichiometry N", "value": 5}
    ]}
  ]
}
